Where no end group is shown, it is not given here.

Series [1] concerns the target p7 protein from the Hepatitis C virus (HCV) (Hepatitis C virus) (UniProt O39928). Kind of series: cross-linking.
Series [2] concerns the target transmembrane domain of Fas (Fas-TMD). Kind of series: SDS-PAGE.
The series “cross-linking” deals with the molecule itself. Kind of series: cross-linking.

Broadly, the stoichiometry N is the number of molecules, sites or subunits per partner or assembly. In series [1], “p7 protein from the Hepatitis C virus (HCV) (from UniProt O39928 748-810) (natural protein)” registered a stoichiometry N of 6. In series [2], RSNLGWLCLLLLPIPLIVWVKRKEVQKT (domain or fragment, modifications not checked) [transmembrane domain of Fas (Fas-TMD)] displayed a stoichiometry N of 3. With RSNLGWLCLLLLPIPLIVWVKRKEVQKT-His6 (domain or fragment, also: primary amines blocked with Sulfo-NHS Acetate) [Fas-TMD with a C-terminal His6-tag], the “stoichiometry N” value in “cross-linking” came out at 3.

The record behind these values is article PMC7238434 (Nature protocols, 2019).
